Biological target: Recombinant human Src expressed in Sf9 insect cells (purified recombinant full-length Src from Upstate Biotechnology) (human) (UniProt P12931)
Assay: cell-based or functional assay

GST-ND1 (amino acid residue 379-435 of pig kidney Na/K-ATPase α1 subunit) (from UniProt P05023 381-439)
IC50 of Src inhibition (pY418): 50 nM
